From the supplement of paper PMC10567573 come the findings set out here.

The labels stand for the following.
B1: SMTNL2 (parent)
chain: ETAAGKGKGEARARLKRSQSFGVA
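Further: lentivirally expressed fusions sorted by FACS into six bins by GFP to DsRed ratio, PSI derived from sequencing read proportions per bin multiplied by bin number.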

The variants in this data set derive from B1. Nature of the data set: protein stability index of a GFP-peptide fusion (GPS, HEK-293T) (PSI 1-6); higher = more stable. Particulars: c terminus: a fixed tail appended.
Consider ETAAGKGKGEARARLKRTQSFGVA [S18T], for which the protein stability index was 4.22.
For ETAAGKGKGEARARLKRPQSFGVA [S18P] the value was 4.01.
The figure for ETAAGKGKGEARARLKRYQSFGVA [S18Y] is 2.89.
For ETAAGKGKGEARARLKRQQSFGVA [S18Q] the value was 4.43; for ETAAGKGKGEARARLKRNQSFGVA [S18N], 4.5.
Consider ETAAGKGKGEARARLKRWQSFGVA [S18W], for which the protein stability index came to 3.64.
For ETAAGKGKGEARARLKRRQSFGVA [S18R] the value was 4.26; for ETAAGKGKGEARARLKRVQSFGVA [S18V], 3.94.
For the variant ETAAGKGKGEARARLKRSQSFGVL [A24L], the protein stability index was determined as 4.49.
The figure for ETAAGKGKGEARARLKRSQSFGVY [A24Y] is 3.72.
As to ETAAGKGKGEARARLKRSQSFGVM [A24M], the protein stability index was determined as 4.29.
In the case of ETAAGKGKGEARARLKRSQSFGVS [A24S], the protein stability index is 4.65.
The figure for ETAAGKGKGEARARLKRSQSFGVH [A24H] is 4.27.
The figure for ETAAGKGKGEARARLKRSQSFGVE [A24E] is 4.71; for ETAAGKGKGEARARLKRSQSFGVW [A24W] it is 3.57; for ETAAGKGKGEARARLKRSQSFGVG [A24G] it is 4.6.
The figure for ETAAGKGKGEARARLKRSQSFGVD [A24D] is 4.9.
On to ETAAGKGKGEARARLKRSQSFGVV [A24V], for which the protein stability index worked out at 4.01.
As for ETAAGKGKGEARARLKRSQSFGVF [A24F], the protein stability index was 3.97.
The figure for ETAAGKGKGEARARLKRSQSFGVC [A24C] is 4.28.
The figure for ETAAGKGKGEARARLKRSQSFGVP [A24P] is 4.88; for ETAAGKGKGEARARLKRSQSFGVK [A24K] it is 4.41.
For ETAAGKGKGEARARLKRSQSFGVN [A24N] the value was 5.09.
On to ETAAGKGKGEARARLKRSQSFGVT [A24T], for which the protein stability index came to 4.23.
Take ETAAGKGKGEARARLKRSQSFGVQ [A24Q]: the protein stability index came out at 4.51.
The figure for ETAAGKGKGEARARLKRSQSFGVR [A24R] is 4.52; for ETAAGKGKGEARARLKRSQSFGVI [A24I] it is 3.75.
For ETAAGKGKGEARARLKRSQSFNVA [G22N] the value was 4.76; for ETAAGKGKGEARARLKRSQSFHVA [G22H], 4.14.
The figure for ETAAGKGKGEARARLKRSQSFKVA [G22K] is 4.81; for ETAAGKGKGEARARLKRSQSFPVA [G22P] it is 5.71; for ETAAGKGKGEARARLKRSQSFRVA [G22R] it is 4.28.
For ETAAGKGKGEARARLKRSQSFWVA [G22W], the protein stability index was 2.81.
As to ETAAGKGKGEARARLKRSQSFSVA [G22S], the protein stability index came to 5.13.
For ETAAGKGKGEARARLKRSQSFAVA [G22A] the value was 4.2.
The figure for ETAAGKGKGEARARLKRSQSFDVA [G22D] is 5.1; for ETAAGKGKGEARARLKRSQSFIVA [G22I] it is 3.9; for ETAAGKGKGEARARLKRSQSFVVA [G22V] it is 4.32.
The figure for ETAAGKGKGEARARLKRSQSFYVA [G22Y] is 3.84; for ETAAGKGKGEARARLKRSQSFQVA [G22Q] it is 4.36; for ETAAGKGKGEARARLKRSQSFTVA [G22T] it is 4.31.
As to ETAAGKGKGEARARLKRSQSFFVA [G22F], the protein stability index is 2.84.
The figure for ETAAGKGKGEARARLKRSQSFCVA [G22C] is 4.84; for ETAAGKGKGEARARLKRSQSFLVA [G22L] it is 4.1.
For ETAAGKGKGEARARLKRSQSFMVA [G22M] the value was 3.86.
For ETAAGKGKGEARARLKRSQSFEVA [G22E] the value was 5.65; for ETAAGKGKGEARARLKRSQIFGVA [S20I], 3.5; for ETAAGKGKGEARARLKRSQPFGVA [S20P], 4.27.
For the variant ETAAGKGKGEARARLKRSQWFGVA [S20W], the protein stability index was determined as 3.02.
ETAAGKGKGEARARLKRSQTFGVA [S20T]: the protein stability index was found to be 4.77.
For ETAAGKGKGEARARLKRSQAFGVA [S20A] the value was 4.56; for ETAAGKGKGEARARLKRSQDFGVA [S20D], 4.58; for ETAAGKGKGEARARLKRSQVFGVA [S20V], 4.27.
The figure for ETAAGKGKGEARARLKRSQLFGVA [S20L] is 4.02; for ETAAGKGKGEARARLKRSQMFGVA [S20M] it is 4.3; for ETAAGKGKGEARARLKRSQGFGVA [S20G] it is 3.76.
On to ETAAGKGKGEARARLKRSQFFGVA [S20F], for which the protein stability index was determined as 4.09.
Regarding ETAAGKGKGEARARLKRSQCFGVA [S20C], the protein stability index came to 4.51.
The figure for ETAAGKGKGEARARLKRSQKFGVA [S20K] is 4.69; for ETAAGKGKGEARARLKRSQQFGVA [S20Q] it is 4.08; for ETAAGKGKGEARARLKRSQRFGVA [S20R] it is 4.09.
The figure for ETAAGKGKGEARARLKRSQNFGVA [S20N] is 4.3; for ETAAGKGKGEARARLKRSQHFGVA [S20H] it is 4.26; for ETAAGKGKGEARARLKRSQYFGVA [S20Y] it is 3.98.
Consider ETAAGKGKGEARARLKRSQEFGVA [S20E], for which the protein stability index came to 4.87.
The figure for ETAAGKGKGEARARLKRSQSEGVA [F21E] is 5.45; for ETAAGKGKGEARARLKRSQSNGVA [F21N] it is 5.
With ETAAGKGKGEARARLKRSQSAGVA [F21A], the protein stability index came to 5.25.
For ETAAGKGKGEARARLKRSQSDGVA [F21D] the value was 5.51.
For ETAAGKGKGEARARLKRSQSCGVA [F21C] the value was 5.02.
In the case of ETAAGKGKGEARARLKRSQSIGVA [F21I], the protein stability index worked out at 5.28.
The figure for ETAAGKGKGEARARLKRSQSSGVA [F21S] is 5.07; for ETAAGKGKGEARARLKRSQSYGVA [F21Y] it is 4.65; for ETAAGKGKGEARARLKRSQSQGVA [F21Q] it is 5.2.
For ETAAGKGKGEARARLKRSQSHGVA [F21H] the value was 4.96.
The figure for ETAAGKGKGEARARLKRSQSPGVA [F21P] is 5.12; for ETAAGKGKGEARARLKRSQSRGVA [F21R] it is 4.23.
For ETAAGKGKGEARARLKRSQSVGVA [F21V], the protein stability index was 5.25.
Take ETAAGKGKGEARARLKRSQSWGVA [F21W]: the protein stability index is 3.22.
ETAAGKGKGEARARLKRSQSTGVA [F21T]: the protein stability index is 5.16.
Consider ETAAGKGKGEARARLKRSQSKGVA [F21K], for which the protein stability index was 5.23.
For ETAAGKGKGEARARLKRSQSMGVA [F21M] the value was 4.3; for ETAAGKGKGEARARLKRSQSGGVA [F21G], 4.08.
ETAAGKGKGEARARLKRSQSLGVA [F21L]: the protein stability index turned out to be 5.02.
For ETAAGKGKGEARARLKRSGSFGVA [Q19G] the value was 4.38.
Turning to ETAAGKGKGEARARLKRSPSFGVA [Q19P], the protein stability index worked out at 4.45.
For ETAAGKGKGEARARLKRSKSFGVA [Q19K] the value was 4.46.
With ETAAGKGKGEARARLKRSHSFGVA [Q19H], the protein stability index amounted to 4.81.
The figure for ETAAGKGKGEARARLKRSSSFGVA [Q19S] is 3.19; for ETAAGKGKGEARARLKRSRSFGVA [Q19R] it is 4.3.
The figure for ETAAGKGKGEARARLKRSASFGVA [Q19A] is 4.35; for ETAAGKGKGEARARLKRSMSFGVA [Q19M] it is 4.18.
For ETAAGKGKGEARARLKRSESFGVA [Q19E] the value was 5.15; for ETAAGKGKGEARARLKRSTSFGVA [Q19T], 4.68.
ETAAGKGKGEARARLKRSISFGVA [Q19I]: the protein stability index worked out at 3.27.
The figure for ETAAGKGKGEARARLKRSVSFGVA [Q19V] is 3.96; for ETAAGKGKGEARARLKRSCSFGVA [Q19C] it is 4.09; for ETAAGKGKGEARARLKRSLSFGVA [Q19L] it is 4.08.
ETAAGKGKGEARARLKRSYSFGVA [Q19Y]: the protein stability index was determined as 3.89.
As to ETAAGKGKGEARARLKRSDSFGVA [Q19D], the protein stability index is 4.61.
For ETAAGKGKGEARARLKRSWSFGVA [Q19W] the value was 4.33; for ETAAGKGKGEARARLKRSNSFGVA [Q19N], 4.89; for ETAAGKGKGEARARLKRSFSFGVA [Q19F], 3.67.
The figure for ETAAGKGKGEARARLKRSQSFGGA [V23G] is 5.23; for ETAAGKGKGEARARLKRSQSFGWA [V23W] it is 3.96.
For ETAAGKGKGEARARLKRSQSFGMA [V23M] the value was 4.84; for ETAAGKGKGEARARLKRSQSFGIA [V23I], 4.39; for ETAAGKGKGEARARLKRSQSFGLA [V23L], 3.68.
With ETAAGKGKGEARARLKRSQSFGYA [V23Y], the protein stability index was 4.11.
As to ETAAGKGKGEARARLKRSQSFGEA [V23E], the protein stability index amounted to 5.35.
The figure for ETAAGKGKGEARARLKRSQSFGNA [V23N] is 4.68.
On to ETAAGKGKGEARARLKRSQSFGCA [V23C], for which the protein stability index is 4.83.
Turning to ETAAGKGKGEARARLKRSQSFGKA [V23K], the protein stability index came to 4.95.
As for ETAAGKGKGEARARLKRSQSFGTA [V23T], the protein stability index amounted to 4.75.
For ETAAGKGKGEARARLKRSQSFGDA [V23D] the value was 4.84; for ETAAGKGKGEARARLKRSQSFGSA [V23S], 5.17.
As to ETAAGKGKGEARARLKRSQSFGPA [V23P], the protein stability index turned out to be 4.62.
Consider ETAAGKGKGEARARLKRSQSFGAA [V23A], for which the protein stability index worked out at 5.1.
As to ETAAGKGKGEARARLKRSQSFGFA [V23F], the protein stability index was 3.98.
ETAAGKGKGEARARLKRSQSFGHA [V23H]: the protein stability index came to 5.02.
For ETAAGKGKGEARARLKRSQSFGRA [V23R] the value was 4.89.
The figure for ETAAGKGKGEARARLKRSQSFGQA [V23Q] is 4.94.
